Measurements taken from patent US20060074018A1, “Methods of diagnosing & treating diabetes and insulin resistance” (Metabolex Inc, priority 2002, published 2006).

Experiments:
[1] = system: connective tissue growth factor (CTGF) mRNA; experiment: Gene expression profiling of muscle samples on custom Affymetrix chips, probe set mbxhummus 24330; type: in vivo, human; settings: muscle of diabetics, Clamp sample
Excerpt: (§1) The molecular mechanism by which thiazolidinediones (TZDs) cause an increase in peripheral insulin sensitivity was studied. Genes in muscle or fat whose expression is altered by TZDs may lie on a pathway leading from TZD treatment to increased insulin sensitivity. Modulators of such genes can elicit the same effect as TZD treatment. Moreover, such modulators can lack some of the side effects of TZD. The majority of glucose disposal occurs in muscle. For this reason, gene expression profiling in human muscle from diabetics treated with troglitazone was used to identify genes important for TZD action and therefore treatment of diabetes and insulin resistance. […] The gene expression profile for each individual was determined by hybridization of cRNA to custom synthesized Affymetrix chips. Gene expression profile differences were calculated as follows. […] The raw data was analyzed by a statistical test to remove ‘outliers’. The mean ‘average difference score’ was then calculated from the average difference scores for all individuals in a particular treatment group. Genes were determined to be changed in condition 1 (such as basal diabetics before trogliazone (tro) treatment) versus condition 2 (such as basal diabetics after troglitazone treatment) by calculating the Students t test statistic between the two conditions and selecting those with t less than or equal to 0.05. […]

[2] = system: TIEG mRNA; experiment: Gene expression profiling of muscle samples on custom Affymetrix chips, probe set mbxhummus23808; type: in vivo, human; settings: muscle of diabetics, Basal sample
Excerpt: as §1

[3] = system: CTGF expression; experiment: Real time PCR analysis of muscle samples, CTGF; type: in vivo, human; settings: mean post-Tro/mean pre-Tro
Procedure: (§2) The gene expression changes observed in the human muscle samples derived from lean and diabetic individuals or from diabetic individuals post-Troglitazone treatment, were further confirmed by the use of real-time quantitative PCR. A combination of specific PCR primers and a Taqman probe were designed to detect and quantify expression levels for each gene. Relative gene expression levels were determined in this manner in each patient and the mean expression level in either the lean or diabetic patient population was then calculated.

[4] = system: TIEG expression; experiment: Real time PCR analysis of muscle samples, TIEG; type: in vivo, human; settings: mean post-Tro/mean pre-Tro
Procedure: as §2

[5] = system: 3T3-L1 adipocytes; experiment: Glut 4 translocation analysis; type: cell-based, murine; settings: for Fold Change (Mean hTIEG/Mean LacZ), cells positive for cell surface Glut 4 / Fold Change (Mean hCTGF/Mean LacZ), cells positive for cell surface Glut 4: n = 3; for Glut 4 translocation with insulin (in words) / Basal Glut 4 translocation (in words): over-expression in 3T3-L1 adipocytes; for Glut 4 translocation with insulin (in words): all insulin concentrations tested; for Basal Glut 4 translocation (in words): no insulin
Excerpt: One analysis called “Glut 4 translocation” involves over-expressing the gene in 3T3-L1 adipocytes and then monitoring the ability of insulin to cause the movement (translocation) of the major insulin-regulated glucose transporter, Glut 4, to the cell surface. The cDNA encoding the human gene was sub-cloned into the mammalian expression vector pcDNA3.1 which provides for a V5 epitope tag. This plasmid encoding the human gene was then introduced into differentiated murine 3T3-L1 adipocytes along with a cloned Glut 4 expression construct using an electroporation procedure essentially as described in Kanzaki et al. J. Biol. Chem 275 7167-7175 (2000). A plasmid expressing LacZ was used as a negative control. After stimulation with increasing concentrations of insulin, cells co-expressing both the human gene and cloned Glut 4 were scored for the presence of Glut 4 at the cell surface using fluorescence microscopy.

[6] = system: 3T3-L1 adipocytes; experiment: Glucose transport analysis in 3T3-L1 adipocytes; type: cell-based, murine
Procedure: (§3) In some instances another analysis called “glucose transport” was used. This involves over-expressing the gene in either differentiated 3T3-L1 adipocytes or differentiated L6 myotubes and then monitoring the ability of insulin to stimulate glucose transport into these two cell types. A recombinant adenovirus encoding the human gene tagged with a FLAG epitope tag was prepared essentially as described in Zhou et al. Proc. Nat. Acad. Sci. USA. 95: 2509-2514. 3T3-L1 adipocytes or L6 myotubes were infected with recombinant adenovims expressing the human gene. A virus expressing an irrelevant protein was used as the control. 24 h post-infection the cells are stimulated with increasing concentrations of insulin and glucose transport into the cells determined by the counting the accumulation of a radiolabelled glucose analog (2-deoxyglucose) essentially as describe in Kotani et al. Mol Cell. Biol. 18 6971-6982 (1998), Fujishiro et al. J. Biol. Chem. 276 19800-19806 (2001), Ross et al. Biochem. Biophys. Res. Commun. 302 354-358 (2003).

[7] = system: L6 myotubes; experiment: Glucose transport analysis in L6 myotubes; type: cell-based
Procedure: as §3

[8] = 3 months of Troglitazone treatment
[9] = after 3 months of Troglitazone treatment, mean average difference score

## Cc1c(C)c2c(c(C)c1O)CCC(C)(COc1ccc(CC3SC(=O)NC3=O)cc1)O2 (stereo not drawn) [Troglitazone, troglitazone]
[1]; [8]
  Fold Change diabetic post tro/diabetic pre tro (Connective Tissue Growth Factor): 0.07
[1]; [9]
  Diabetic Post-Trog Mean Expr (Connective Tissue Growth Factor): 29
[2]; [8]
  Fold Change diabetic post-trog/diabetic pre-trog (TIEG): 0.65
[2]; [9]
  Diabetic Post-Trog Mean Expr (TIEG): 2634
[3]
  Expression Fold change, CTGF, Diabetics + Tro/Diabetics − Tro: 0.35
[4]
  Expression Fold change, TIEG, Diabetics + Tro/Diabetics − Tro: 0.69

B1: hTIEG: human TIEG (SEQ ID NO:8) over-expressed in 3T3-L1 adipocytes from pcDNA3.1 plasmid (protein, listed as Homo sapiens)
chain: MEERMEMISERPKESMYSWNKTAEKSDFEAVEALMSMSCSWKSDFKKYVENRPVTPVSDLSEEENLLPGTPDFHTIPAFCLTPPYSPSDFEPSQVSNLMAPAPSTVHFKSLSDTAKPHIAAPFKEEEKSPVSAPKLPKAQATSVIRHTADAQLCNHQTCPMKAASILNYQNNSFRRRTHLNVEAARKNIPCAAVSPNRSKCERNTVADVDEKASAALYDFSVPSSETVICRSQPAPVSPQQKSVLVSPPAVSAGGVPPMPVICQMVPLPANNPVVTTVVPSTPPSQPPAVCPPVVFMGTQVPKGAVMFVVPQPVVQSSKPPVVSPNGTRLSPIAPAPGFSPSAAKVTPQIDSSRIRSHICSHPGCGKTYFKSSHLKAHTRTHTGEKPFSCSWKGCERRFARSDELSRHRRTHTGEKKFACPMCDRRFMRSDHLTKHARRHLSAKKLPNWQMEVSKLNDIALPPTPAPTQ
modifications: human transforming growth factor-beta (TGFB) inducible early growth response (TIEG)
[5]; Insulin 0 nM
  Fold Change (Mean hTIEG/Mean LacZ), cells positive for cell surface Glut 4: 1.34
[5]; Insulin 1 nM
  Fold Change (Mean hTIEG/Mean LacZ), cells positive for cell surface Glut 4: 0.20
[5]; Insulin 10 nM
  Fold Change (Mean hTIEG/Mean LacZ), cells positive for cell surface Glut 4: 0.11
[5]
  Glut 4 translocation with insulin (in words): significantly inhibited Glut 4 translocation at all insulin concentrations tested
  Basal Glut 4 translocation (in words): little or no effect on basal Glut 4 translocation

B2: hCTGF: human Connective Tissue Growth Factor (SEQ ID NO:2) over-expressed in cells from pcDNA3.1 plasmid or recombinant adenovirus (protein, listed as Homo sapiens)
chain: MTAASMGPVRVAFVVLLALCSRPAVGQNCSGPCRCPDEPAPRCPAGVSLVLDGCGCCRVCAKQLGELCTERDPCDPHKGLFCDFGSPANRKIGVCTAKDGAPCIFGGTVYRSGESFQSSCKYQCTCLDGAVGCMPLCSMDVRLPSPDCPFPRRVKLPGKCCEEWVCDEPKDQTVVGPALAAYRLEDTFGPDPTMIRANCLVQTTEWSACSKTCGMGISTRVTNDNASCRLEKQSRLCMVRPCEADLEENIKKGKKCIRTPKISKPIKFELSGCTSMKTYRAKFCGVCTDGRCCTPHRTTTLPVEFKCPDGEVMKKNMMFIKTCACHYNCPGDNDIFESLYYRKMYGDMA
modifications: human connective tissue growth factor (CTGF)
[5]; Insulin 0 nM
  Fold Change (Mean hCTGF/Mean LacZ), cells positive for cell surface Glut 4: 0.97
[5]; Insulin 1 nM
  Fold Change (Mean hCTGF/Mean LacZ), cells positive for cell surface Glut 4: 0.35
[5]; Insulin 10 nM
  Fold Change (Mean hCTGF/Mean LacZ), cells positive for cell surface Glut 4: 0.45
[5]
  Glut 4 translocation with insulin (in words): significantly inhibited Glut 4 translocation at all insulin concentrations tested
  Basal Glut 4 translocation (in words): little or no effect on basal Glut 4 translocation
[6]; Expt 1, Insulin 0 nM
  FC (hCTGF/Con) glucose transport: 0.7
[6]; Expt 1, Insulin 0.05 nM
  FC (hCTGF/Con) glucose transport: 0.6
[6]; Expt 1, Insulin 0.1 nM
  FC (hCTGF/Con) glucose transport: 0.6
[6]; Expt 1, Insulin 0.3 nM
  FC (hCTGF/Con) glucose transport: 0.7
[6]; Expt 1, Insulin 1 nM
  FC (hCTGF/Con) glucose transport: 0.8
[6]; Expt 1, Insulin 10 nM
  FC (hCTGF/Con) glucose transport: 0.6
[6]; Expt 2, Insulin 0 nM
  FC (hCTGF/Con) glucose transport: 0.6
[6]; Expt 2, Insulin 0.05 nM
  FC (hCTGF/Con) glucose transport: 0.6
[6]; Expt 2, Insulin 0.1 nM
  FC (hCTGF/Con) glucose transport: 0.7
[6]; Expt 2, Insulin 0.3 nM
  FC (hCTGF/Con) glucose transport: 0.8
[6]; Expt 2, Insulin 1 nM
  FC (hCTGF/Con) glucose transport: 0.8
[6]; Expt 2, Insulin 10 nM
  FC (hCTGF/Con) glucose transport: 0.7
[6]; Expt 3, Insulin 0 nM
  FC (hCTGF/Con) glucose transport: 0.8
[6]; Expt 3, Insulin 0.05 nM
  FC (hCTGF/Con) glucose transport: 0.7
[6]; Expt 3, Insulin 0.1 nM
  FC (hCTGF/Con) glucose transport: 0.7
[6]; Expt 3, Insulin 0.3 nM
  FC (hCTGF/Con) glucose transport: 0.8
[6]; Expt 3, Insulin 1 nM
  FC (hCTGF/Con) glucose transport: 0.9
[6]; Expt 3, Insulin 10 nM
  FC (hCTGF/Con) glucose transport: 0.9
[6]; Insulin 0 nM
  Mean FC (hCTGF/Con) +/− SEM (n = 3) glucose transport: 0.70 +/− 0.03
[6]; Insulin 0.05 nM
  Mean FC (hCTGF/Con) +/− SEM (n = 3) glucose transport: 0.63 +/− 0.06
[6]; Insulin 0.1 nM
  Mean FC (hCTGF/Con) +/− SEM (n = 3) glucose transport: 0.67 +/− 0.02
[6]; Insulin 0.3 nM
  Mean FC (hCTGF/Con) +/− SEM (n = 3) glucose transport: 0.76 +/− 0.05
[6]; Insulin 1 nM
  Mean FC (hCTGF/Con) +/− SEM (n = 3) glucose transport: 0.83 +/− 0.02
[6]; Insulin 10 nM
  Mean FC (hCTGF/Con) +/− SEM (n = 3) glucose transport: 0.75 +/− 0.10
[6]; over-expression in 3T3-L1 adipocytes, basal and insulin stimulated
  Glucose transport (in words): inhibited both basal and insulin stimulated glucose transport
[7]; Expt 1, Insulin 0 nM
  FC (hCTGF/Con) glucose transport: 0.78
[7]; Expt 1, Insulin 10 nM
  FC (hCTGF/Con) glucose transport: 0.67
[7]; Expt 1, Insulin 100 nM
  FC (hCTGF/Con) glucose transport: 0.70
[7]; Expt 2, Insulin 0 nM
  FC (hCTGF/Con) glucose transport: 0.79
[7]; Expt 2, Insulin 10 nM
  FC (hCTGF/Con) glucose transport: 0.92
[7]; Expt 2, Insulin 100 nM
  FC (hCTGF/Con) glucose transport: 1.05
[7]; Expt 3, Insulin 0 nM
  FC (hCTGF/Con) glucose transport: 0.79
[7]; Expt 3, Insulin 10 nM
  FC (hCTGF/Con) glucose transport: 0.77
[7]; Expt 3, Insulin 100 nM
  FC (hCTGF/Con) glucose transport: 0.74
[7]; Insulin 0 nM
  Mean FC (CTGF/Con) +/− SEM (n = 3) glucose transport: 0.79 +/− 0.004
[7]; Insulin 10 nM
  Mean FC (CTGF/Con) +/− SEM (n = 3) glucose transport: 0.79 +/− 0.07
[7]; Insulin 100 nM
  Mean FC (CTGF/Con) +/− SEM (n = 3) glucose transport: 0.83 +/− 0.11
[7]; over-expression in L6 myotubes, basal and insulin stimulated
  Glucose transport (in words): inhibited both basal and insulin stimulated glucose transport
